From US20210171647A1 (WUXI BIOLOGICS SHANGHAI, published 2021)

Tests used:
Assay in all cases: ELISA, antibody coated, OX40-ECD.His mutant supernatant; relative to silent alanine substitutions;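 further: captured OX40 mutant protein detected with HRP-labelled anti-His antibody, absorbance read-out, scaled to the mean signal of control mutants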
human OX40-ECD.His R55A = molecular target: T1, human OX40-ECD.His R55A (human, UniProt P43489 29-214)
T1 construct: extracellular domain; not shown: C-terminal His-tag
T1 sequence (looked up): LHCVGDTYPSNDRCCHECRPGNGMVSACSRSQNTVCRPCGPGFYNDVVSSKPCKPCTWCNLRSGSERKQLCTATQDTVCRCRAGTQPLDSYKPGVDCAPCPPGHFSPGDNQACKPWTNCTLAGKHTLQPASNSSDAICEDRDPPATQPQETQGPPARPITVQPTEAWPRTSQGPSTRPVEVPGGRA

human OX40-ECD.His A150G = molecular target: T2, human OX40-ECD.His A150G (human, UniProt P43489 29-214)
T2 construct: extracellular domain; not shown: C-terminal His-tag
T2 sequence (looked up): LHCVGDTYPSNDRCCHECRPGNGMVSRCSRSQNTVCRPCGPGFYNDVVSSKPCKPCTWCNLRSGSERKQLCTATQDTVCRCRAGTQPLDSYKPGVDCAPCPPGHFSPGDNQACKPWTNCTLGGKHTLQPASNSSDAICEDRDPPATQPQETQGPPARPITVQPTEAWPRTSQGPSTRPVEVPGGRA

human OX40-ECD.His R90A = molecular target: T3, human OX40-ECD.His R90A (human, UniProt P43489 29-214)
T3 construct: extracellular domain; not shown: C-terminal His-tag
T3 sequence (looked up): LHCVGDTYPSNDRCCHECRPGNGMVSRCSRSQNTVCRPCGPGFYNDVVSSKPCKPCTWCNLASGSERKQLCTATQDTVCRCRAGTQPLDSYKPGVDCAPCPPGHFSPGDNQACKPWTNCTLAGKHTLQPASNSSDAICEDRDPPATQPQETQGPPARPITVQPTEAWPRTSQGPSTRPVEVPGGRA

human OX40-ECD.His P69A = molecular target: T4, human OX40-ECD.His P69A (human, UniProt P43489 29-214)
T4 construct: extracellular domain; not shown: C-terminal His-tag
T4 sequence (looked up): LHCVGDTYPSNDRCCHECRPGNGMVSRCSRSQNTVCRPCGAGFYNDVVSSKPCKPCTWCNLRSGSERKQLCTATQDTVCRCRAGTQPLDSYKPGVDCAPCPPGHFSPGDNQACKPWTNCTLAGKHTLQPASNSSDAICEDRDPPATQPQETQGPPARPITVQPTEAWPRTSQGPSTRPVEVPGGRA

human OX40-ECD.His Q97A = molecular target: T5, human OX40-ECD.His Q97A (human, UniProt P43489 29-214)
T5 construct: extracellular domain; not shown: C-terminal His-tag
T5 sequence (looked up): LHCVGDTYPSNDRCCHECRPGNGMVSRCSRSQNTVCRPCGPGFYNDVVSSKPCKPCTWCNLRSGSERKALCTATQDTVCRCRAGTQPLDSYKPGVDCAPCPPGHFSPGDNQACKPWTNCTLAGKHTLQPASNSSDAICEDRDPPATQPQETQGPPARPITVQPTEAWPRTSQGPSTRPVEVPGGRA

human OX40-ECD.His T105A = molecular target: T6, human OX40-ECD.His T105A (human, UniProt P43489 29-214)
T6 construct: extracellular domain; not shown: C-terminal His-tag
T6 sequence (looked up): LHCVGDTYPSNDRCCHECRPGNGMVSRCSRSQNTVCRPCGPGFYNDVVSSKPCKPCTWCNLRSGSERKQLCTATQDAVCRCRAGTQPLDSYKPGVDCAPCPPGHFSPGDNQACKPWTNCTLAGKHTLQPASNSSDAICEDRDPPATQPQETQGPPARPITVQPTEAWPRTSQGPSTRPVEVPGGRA

human OX40-ECD.His P129A = molecular target: T7, human OX40-ECD.His P129A (human, UniProt P43489 29-214)
T7 construct: extracellular domain; not shown: C-terminal His-tag
T7 sequence (looked up): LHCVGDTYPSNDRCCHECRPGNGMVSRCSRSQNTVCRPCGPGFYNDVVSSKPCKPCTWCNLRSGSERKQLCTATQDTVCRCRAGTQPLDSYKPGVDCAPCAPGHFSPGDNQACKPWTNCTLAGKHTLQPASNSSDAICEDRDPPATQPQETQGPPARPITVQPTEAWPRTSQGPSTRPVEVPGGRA

human OX40-ECD.His D163A = molecular target: T8, human OX40-ECD.His D163A (human, UniProt P43489 29-214)
T8 construct: extracellular domain; not shown: C-terminal His-tag
T8 sequence (looked up): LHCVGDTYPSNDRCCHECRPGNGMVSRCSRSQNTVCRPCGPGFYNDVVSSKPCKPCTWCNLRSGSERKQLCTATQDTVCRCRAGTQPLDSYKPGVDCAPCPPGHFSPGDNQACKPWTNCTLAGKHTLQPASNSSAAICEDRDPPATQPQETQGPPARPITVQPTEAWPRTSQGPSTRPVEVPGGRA

human OX40-ECD.His Y119A = molecular target: T9, human OX40-ECD.His Y119A (human, UniProt P43489 29-214)
T9 construct: extracellular domain; not shown: C-terminal His-tag
T9 sequence (looked up): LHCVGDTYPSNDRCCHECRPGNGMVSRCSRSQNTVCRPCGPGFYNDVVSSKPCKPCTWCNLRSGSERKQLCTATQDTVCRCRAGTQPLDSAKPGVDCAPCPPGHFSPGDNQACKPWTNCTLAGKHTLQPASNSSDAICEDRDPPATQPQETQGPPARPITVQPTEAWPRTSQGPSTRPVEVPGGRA

human OX40-ECD.His R95A = molecular target: T10, human OX40-ECD.His R95A (human, UniProt P43489 29-214)
T10 construct: extracellular domain; not shown: C-terminal His-tag
T10 sequence (looked up): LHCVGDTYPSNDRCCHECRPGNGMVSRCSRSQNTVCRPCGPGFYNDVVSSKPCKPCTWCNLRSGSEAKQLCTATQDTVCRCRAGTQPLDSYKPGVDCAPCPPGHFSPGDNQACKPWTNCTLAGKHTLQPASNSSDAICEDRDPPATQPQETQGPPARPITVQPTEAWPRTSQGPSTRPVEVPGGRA

Fold Change (human OX40-ECD.His R55A): 0.976
Fold Change (human OX40-ECD.His A150G): 0.96
Fold Change (human OX40-ECD.His R90A): 1.01
Fold Change (human OX40-ECD.His P69A): 0.987
Fold Change (human OX40-ECD.His Q97A): 0.981
Fold Change (human OX40-ECD.His T105A): 0.787
Fold Change (human OX40-ECD.His P129A): 0.907
Fold Change (human OX40-ECD.His D163A): 0.318
Fold Change (human OX40-ECD.His Y119A): 0.995
Fold Change (human OX40-ECD.His R95A): 0.996
B1: 1.134.9-u1-IgG1L (antibody, V domains shown)
VH: QVQLQESGPGLVKPSGTLSLTCAVSGGSISSYNWWSWVRQPPGKGLEWIGEIYHGGNTNYNPSLKSRVTMSVDNSKNQFSLKLSSVTAADTAVYYCARAPGDWGGSPYFDFWGQGTLVTVSS
VL: SSELTQDPAVSVALGQTVRITCQGDNLRTYYASWYQQKPGQAPILLIYGRNKRPSGIPDRFSGSSSGNTASLTITGAQAEDEAAYYCNSRDSSGNPVVFGGGTKLTVL
notes: fully human IgG1, lambda
